Data from the supplement of paper PMC10567573.

B1: ELF3 (parent)
chain: RLVYKFGKNSSGWKEEEVLQSRN
B2: MMP1 (parent)
chain: FVRGDHRDNSPFDGPGGNLAHAFQ

Variants of: B1
Test: protein stability index of a GFP-peptide fusion (GPS, HEK-293T) (PSI 1-6); higher = more stable
Details: c terminus: native
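Note: lentivirally expressed fusions sorted by FACS into six bins by GFP to DsRed ratio, PSI derived from sequencing read proportions per bin multiplied by bin number.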

Row | Variant | protein stability index
1 | G12P | 2.46
2 | G12N | 1.98
3 | G12I | 1.76
4 | G12A | 2.37
5 | G12E | 2.98
6 | G12K | 1.69
7 | G12T | 1.87
8 | G12V | 1.79
9 | G12S | 2.5
10 | G12Q | 1.95
11 | G12H | 2.02
12 | G12D | 3.19
13 | E16Q | 1.25
14 | E16I | 3.06
15 | E16F | 3.9
16 | E16C | 1.94
17 | E16V | 1.04
18 | E16Y | 2.91
19 | E16L | 3.56
20 | E16D | 2.15
21 | E16G | 1.5
22 | N23I | 1.8
23 | N23D | 2.7
24 | N23F | 2.86

Row | Variant | protein stability index
25 | N23C | 1.7
26 | N23K | 3.52
27 | N23Q | 1.87
28 | N23Y | 2.31
29 | N23W | 2.13
30 | N23E | 3.68
31 | N23G | 2
32 | G7I | 1.46
33 | G7Q | 2.5
34 | G7A | 1.89
35 | G7D | 4.11
36 | G7N | 2.64
37 | G7T | 2.31
38 | G7M | 1.81
39 | G7W | 3.57
40 | V18A | 2.49
41 | V18M | 1.84
42 | V18I | 2.32
43 | V18E | 3.17
44 | V18F | 1.73
45 | V18Y | 1.25
46 | V18G | 2.9
47 | V18N | 2.59
48 | V18Q | 2.35

Row | Variant | protein stability index
49 | V18K | 2.94
50 | V18H | 3.01
51 | V18R | 2.29
52 | V18P | 2.81
53 | Q20D | 3.28
54 | Q20N | 3.32
55 | Q20T | 1.58
56 | Q20A | 1.89
57 | Q20W | 1.67
58 | Q20S | 2.4
59 | Q20H | 1.76
60 | Q20G | 3.4
61 | Q20E | 3.52
62 | Q20V | 1.71
63 | Q20I | 1.71
64 | K14H | 1.41
65 | K14V | 2.25
66 | K14S | 2.89
67 | K14D | 3.25
68 | K14L | 2.7
69 | K14M | 2.88
70 | K14T | 2.32
71 | K14E | 3.31
72 | K14F | 2.49

Row | Variant | protein stability index
73 | K14P | 2.58
74 | K14Q | 3
75 | Y4A | 3.39
76 | Y4S | 2.42
77 | Y4L | 1.83
78 | Y4E | 3.47
79 | Y4D | 3.73
80 | Y4M | 2.55
81 | Y4N | 3.13
82 | Y4Q | 3.16
83 | Y4K | 3.36
84 | Y4F | 2.35
85 | Y4C | 1.95
86 | V3G | 2.48
87 | V3E | 4.75
88 | V3T | 2.86
89 | V3K | 2.49
90 | V3C | 1.71
91 | V3S | 2.7
92 | V3L | 1.9
93 | V3H | 2.53
94 | F6A | 3.69
95 | F6P | 3.47
96 | F6D | 4.7

Row | Variant | protein stability index
97 | F6H | 3.29
98 | F6Q | 3.08
99 | F6I | 2.26
100 | F6C | 1.42
101 | F6V | 3.89
102 | F6L | 1.61
103 | F6K | 3.53
104 | F6S | 3.28
105 | F6Y | 2.45
106 | S11E | 3.01
107 | S11Y | 2.21
108 | S11D | 3.33
109 | S11K | 1.6
110 | S11C | 1.84
111 | S11V | 3.33
112 | S11P | 2.79
113 | S11H | 1.89
114 | S11L | 1.78
115 | S11R | 2.05
116 | L2R | 2.87
117 | L2H | 3.38
118 | L2N | 3.41
119 | L2Q | 3.04
120 | L2E | 4.2

Row | Variant | protein stability index
121 | L2I | 2.45
122 | L2F | 2.79
123 | L2G | 2.78
124 | L2T | 2.84
125 | L2D | 4.22
126 | L2Y | 1.85
127 | L2S | 2.93
128 | L2C | 2.29
129 | L19G | 3.19
130 | L19C | 2.33
131 | L19R | 2.51
132 | L19A | 3.3
133 | L19Y | 1.52
134 | L19Q | 3.85
135 | L19N | 3.65
136 | L19V | 2.55
137 | L19D | 4.52
138 | L19I | 2.67
139 | R22T | 3.51
140 | R22F | 3.01
141 | R22A | 2.85
142 | R22M | 2.72
143 | R22K | 3.75
144 | R22Y | 2.06

Row | Variant | protein stability index
145 | R22C | 2.35
146 | R22H | 3.53
147 | R22I | 3.42
148 | R22L | 2.56
149 | R22D | 4.7
150 | W13S | 3.78
151 | W13L | 4.02
152 | W13A | 4.73
153 | W13P | 4.45
154 | W13F | 3.03
155 | W13C | 4.09
156 | W13E | 4.85
157 | W13H | 4.28
158 | W13N | 3.67
159 | S10C | 2.55
160 | S10K | 2.23
161 | S10F | 1.34
162 | S10I | 1.66
163 | S10G | 2.11
164 | S10Q | 2.51
165 | S10R | 1.18
166 | S10E | 2.86
167 | S10D | 3.25
168 | S10A | 2.64

Row | Variant | protein stability index
169 | K8H | 2.26
170 | K8D | 3.36
171 | K8F | 1.86
172 | K8L | 1.92
173 | K8E | 2.97
174 | K8A | 2.77
175 | K8V | 1.91
176 | K8R | 1.31
177 | K8T | 2.62
178 | K8M | 1.38
179 | N9D | 3.19
180 | N9V | 2.08
181 | N9K | 1.97
182 | N9S | 2.22
183 | N9H | 1.68
184 | N9M | 4.34
185 | N9T | 1.73
186 | N9P | 2.33
187 | N9R | 2.91
188 | N9G | 1.9
189 | N9L | 2.59
190 | E17N | 1.6
191 | E17G | 1.93
192 | E17M | 2.27

Row | Variant | protein stability index
193 | E17K | 1.3
194 | E17H | 1.11
195 | E17P | 2.22
196 | E17C | 2.62
197 | E17Y | 2.98
198 | E15K | 3.27
199 | E15V | 2.49
200 | E15N | 1.94
201 | E15W | 1.86
202 | E15Q | 1.76
203 | E15D | 1.9
204 | E15A | 1.43
205 | K5E | 2.89
206 | K5S | 2.5
207 | K5A | 1.76
208 | K5M | 1.91
209 | K5P | 1.89
210 | K5T | 2.14
211 | K5R | 1.05
212 | K5N | 2.39
213 | K5I | 1.36
214 | K5D | 2.8
215 | K5Q | 2.09
216 | S21C | 2.39

Row | Variant | protein stability index
217 | S21L | 3.31
218 | S21F | 1.94
219 | S21V | 1.82
220 | S21T | 2.1
221 | S21I | 2.41
222 | S21N | 2.49
223 | S21Q | 3.82
224 | R1S | 1.69
225 | R1Q | 2.67
226 | R1A | 2.54
227 | R1P | 3.7
228 | R1L | 1.83
229 | R1V | 1.24
230 | R1H | 2.72
231 | R1F | 2.22
232 | R1C | 2.32
233 | R1K | 2.55
234 | R1I | 1.62

Variants of: B2
Test: as above
Details: c terminus: a fixed tail appended

Row | Variant | protein stability index
235 | Q24T | 3.41
236 | Q24L | 1.93
237 | Q24N | 1.62
238 | Q24V | 2.39
239 | Q24E | 3.81
240 | Q24M | 2.73
241 | Q24C | 1.72
242 | Q24K | 1.6
243 | Q24A | 1.88
244 | Q24F | 2.78
245 | Q24G | 1.99
246 | Q24R | 1.63
247 | Q24D | 2.75
248 | Q24S | 1.02
249 | Q24H | 1.84
250 | Q24Y | 3.94
251 | Q24P | 1.97
252 | H21G | 1.81
253 | H21P | 1.47
254 | H21D | 2.15
255 | H21N | 2.15
256 | H21C | 2.53
257 | H21R | 1.33
258 | H21T | 2.1
259 | H21M | 2.01

Row | Variant | protein stability index
260 | H21S | 2.2
261 | H21L | 1.57
262 | H21Y | 2.91
263 | H21V | 1.6
264 | H21K | 1.95
265 | H21Q | 1.62
266 | H21F | 2.31
267 | H21E | 1.94
268 | H21A | 2.77
269 | H21I | 2.7
270 | L19R | 1.66
271 | L19T | 2.08
272 | L19N | 1.73
273 | L19P | 1.49
274 | L19S | 1.15
275 | L19Q | 1.51
276 | L19Y | 1.64
277 | L19V | 3.29
278 | L19M | 2.1
279 | F23E | 2.38
280 | F23A | 1.78
281 | F23N | 1.73
282 | F23D | 1.9
283 | F23H | 2.08
284 | F23T | 1.56

Row | Variant | protein stability index
285 | F23Q | 2.11
286 | F23L | 1.89
287 | F23Y | 2.12
288 | F23V | 1.99
289 | F23P | 2.63
290 | F23K | 2.45
291 | F23S | 1.88
292 | F23W | 2.74
293 | F23R | 2.03
294 | F23M | 2.25
295 | F23C | 1.38
296 | F23I | 2.33
297 | F23G | 2.12
298 | A22C | 1.98
299 | A22W | 1.68
300 | A22I | 2.06
301 | A22F | 2.25
302 | A22K | 2.42
303 | A22E | 1.38
304 | A22D | 2.44
305 | A22V | 1.53
306 | A22P | 3.37
307 | A22T | 2.31
308 | A22M | 2.4
309 | A22G | 1.58

Row | Variant | protein stability index
310 | A22R | 2.58
311 | A22Q | 1.46
312 | A22S | 1.91
313 | A22L | 1.74
314 | A22N | 1.75
315 | A22H | 2
316 | A22Y | 2.34
317 | A20G | 1.92
318 | A20N | 1.76
319 | A20T | 3.31
320 | A20R | 1.43
321 | A20H | 1.44
322 | A20Y | 1.29
323 | A20F | 2.66
324 | A20P | 1.74
325 | A20M | 1.88
326 | A20Q | 1.69
327 | A20D | 1.74
328 | A20C | 2.69
329 | A20L | 2.49
330 | A20K | 2.56
331 | A20V | 1.99
332 | A20E | 1.89
333 | A20I | 2.04
334 | A20S | 1.88
